Km, kcat and kcat/Km data for eight molecules are collected here from PMC4206950 (Chemical science (Royal Society of Chemistry : 2010), 2014).

One may read the Km as the concentration of substrate that gives half-maximal velocity. As a reminder, the kcat is the maximal rate divided by the concentration of active sites. A word on the kcat/Km: it is the second-order rate constant that governs catalysis at low substrate concentration.

Holding throughout (assay): purified protein
Series [1] deals with CC(=O)Oc1ccc([N+](=O)[O-])cc1. It is filed as biochemical, Hevea brasiliensis. The conditions noted are these: BES pH 7.2, 25 °C, about 7 vol% acetonitrile.
Series [2] has as its system CC(C)(O)C#N. It is filed as biochemical, Hevea brasiliensis. Particulars: pH 5 citrate buffer.
Series [3] relates to N#CC(O)c1ccccc1. In kind it is biochemical, Hevea brasiliensis. The conditions noted are these: pH 5.0 citrate buffer, 25 °C, racemic substrate.
In series [4] the test system is CC(=O)Oc1ccccc1. Particulars: […] BES pH 7.2, 5% MeCN.
Substrate in series [5]: CC(=O)Oc1ccc([N+](=O)[O-])cc1
It is filed as biochemical, Pseudomonas fluorescens. The conditions noted are these: BES pH 7.2, 25 °C, about 7 vol% acetonitrile.

Substrate in series [6]: CC(=O)Oc1ccc([N+](=O)[O-])cc1
In kind it is biochemical, Nicotiana tabacum. Particulars: BES pH 7.2, 25 °C, about 7 vol% acetonitrile.

Regarding HbHNL (Hevea brasiliensis; E79H), in series [1], the Km came to 190 ± 40 µM, the kcat is 0.00133 ± 6.67e-05 s⁻¹ and the kcat/Km is 6.83 M⁻¹ s⁻¹.
As to “HbHNL (Hevea brasiliensis; E79H/K236G/T11G)”, the Km was 160 ± 20 µM in series [1], 6500 ± 1000 µM in series [2], 3200 ± 900 µM in series [3] and 2800 ± 400 µM in series [4]. The kcat in series [1] was determined as 0.027 ± 0.000833 s⁻¹; in series [2], 0.0967 ± 0.00833 s⁻¹; in series [3], 0.135 ± 0.0167 s⁻¹; in series [4], 0.02 ± 0.00167 s⁻¹. In addition, the kcat/Km in series [1] was 168 M⁻¹ s⁻¹; in series [2], 14.8 M⁻¹ s⁻¹; in series [3], 41.7 M⁻¹ s⁻¹; in series [4], 6.83 M⁻¹ s⁻¹.
For the molecule HbHNL (Hevea brasiliensis; E79H/T11G), in series [1], the Km stood at 140 ± 20 µM, the kcat stood at 0.00967 ± 0.000333 s⁻¹ and the kcat/Km amounted to 69.3 M⁻¹ s⁻¹.
For HbHNL (Hevea brasiliensis; K236G/T11G), in series [1], the Km was determined as 150 ± 20 µM, the kcat was found to be 0.00217 ± 6.67e-05 s⁻¹ and the kcat/Km came out at 14.3 M⁻¹ s⁻¹.
The matching figures for HbHNL (Hevea brasiliensis; K236M): 580 ± 50 µM, 0.0123 ± 0.000333 s⁻¹ and 21.2 M⁻¹ s⁻¹.
With HbHNL (Hevea brasiliensis; T11G), in series [1], the Km was 200 ± 40 µM, the kcat is 0.0015 ± 8.33e-05 s⁻¹ and the kcat/Km stood at 7.5 M⁻¹ s⁻¹.

B1: PFE (Pseudomonas fluorescens) (protein)
chain: STFVAKDGTQIYFKDWGSGKPVLFSHGWLLDADMWEYQMEYLSSRGYRTIAFDRRGFGRSDQPWTGNDYDTFADDIAQLIEHLDLKEVTLVGFSMGGGDVARYIARHGSARVAGLVLLGAVTPLFGQKPDYPQGVPLDVFARFKTELLKDRAQFISDFNAPFYGINKGQVVSQGVQTQTLQIALLASLKATVDCVTAFAETDFRPDMAKIDVPTLVIHGDGDQIVPFETTGKVAAELIKGAELKVYKDAPHGFAVTHAQQLNEDLLAFLKR
Turning to B1, the Km in series [5] was found to be 450 µM.

B2: SABP2 (Nicotiana tabacum) (protein)
chain: MKEGKHFVLVHGACHGGWSWYKLKPLLEAAGHKVTALDLAASGTDLRKIEELRTLYDYTLPLMELMESLSADEKVILVGHSLGGMNLGLAMEKYPQKIYAAVFLAAFMPDSVHNSSFVLEQYNERTPAENWLDTQFLPYGSPEEPLTSMFFGPKFLAHKLYQLCSPEDLALASSLVRPSSLFMEDLSKAKYFTDERFGSVKRVYIVCTEDKGIPEEFQRWQIDNIGVTEAIEIKGADHMAMLCEPQKLCASLLEIAHKYN
Turning to B2, the Km in series [6] came to 1400 ± 100 µM.
